Laboratory results taken from paper PMC6989803, “Synechocystis KaiC3 Displays Temperature- and KaiB-Dependent ATPase Activity and Is Important for Growth in Darkness” (Journal of Bacteriology, 2019).

Experiments:
[1] = target: KaiC3 wild-type protein fused to an N-terminal Strep-tag (Synechocystis sp. strain PCC 6803); experiment: SEC; Strep-KaiC3 on Sephacryl S300 HR HiPrep 16/60; 20 or 50 mM Tris-HCl (pH 8.0), 150 mM NaCl, 2 mM DTT, 1 mM ATP, 5 mM MgCl2
[2] = target: the molecule itself; experiment: SEC; KaiB1 and KaiB3 on Sephacryl S200 HR HiPrep 16/60 or Superdex 200 Increase 10/30 GL; 20 or 50 mM Tris-HCl (pH 8.0), 150 mM NaCl, 2 mM DTT

Row | Molecule | stoichiometry N [1] | stoichiometry N [2]
1 | KaiC3 wild-type protein fused to an N-terminal Strep-tag (enzyme) | 6 | 
2 | KaiB1, recombinant, GST tag cleaved off (natural protein, Synechocystis sp. strain PCC 6803, UniProt P74645 1-105, looked up, Eluted only as a tetramer from size exclusion chromatography; also called KaiB1 tetramer) MSPFKKTYVLKLYVAGNTPNSVRALKMLKNILEQEFQGVYALKVIDVLKNPQLAEEDKILATPTLAKILPPPVRKIIGDLSDREKVLIGLDLLYDEIREREAEDQ |  | 4
3 | KaiB3, recombinant, GST tag cleaved off (natural protein, Synechocystis sp. strain PCC 6803, UniProt Q55819 1-102, looked up, Eluted as a monomer and as a tetramer; the two fractions were tested separately in the ATPase assay; also called KaiB3 monomer; KaiB3 tetramer) MDMNRIVLRLYITGNSVRSQQAIANIYRICQEDLGDQYNVEIIDVLEQPQRAEEEKIMVTPTLIKQLPPPLQRIIGDMSNTEKVLLGLDIVPEGLQVRLPED |  | 4
